Assay results: PMC5014329

Legend:
[1] = biological target: M2 (amino acids 42–141) (Streptococcus pyogenes (group A Streptococcus), strain M2 (AP2)); experiment: crystal structure
[2] = biological target: M22 (42–120) (Streptococcus pyogenes (group A Streptococcus), strain M22 (Sir22)); experiment: crystal structure

| Substance | stoichiometry N [1] | stoichiometry N [2] |
| --- | --- | --- |
| M2 (amino acids 42–141) (domain or fragment) | 2 | – |
| M22 (42–120) (domain or fragment) | – | 2 |
